Measurements published in publication PMC3928541.
Like-named read-outs stand apart in the source and are kept apart here.

Key:
mCherry-RAB11A [1] = biological target: mCherry-RAB11A (UniProt P62491); test: FRET or BRET
mCherry-RAB11A [2] = biological target: mCherry-RAB11A (UniProt P62491); test: FRET or BRET; remark: listed apart in the source

UniProt P62491, sequence (P62491 whole entry): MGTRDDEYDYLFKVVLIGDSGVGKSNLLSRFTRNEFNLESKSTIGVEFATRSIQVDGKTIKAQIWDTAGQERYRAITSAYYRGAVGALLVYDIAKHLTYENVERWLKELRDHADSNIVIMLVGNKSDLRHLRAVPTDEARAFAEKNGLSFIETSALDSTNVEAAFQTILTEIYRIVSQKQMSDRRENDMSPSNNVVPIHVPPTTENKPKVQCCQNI

KIF13A-YFP fusion protein (natural protein)
mean YFP fluorescence lifetime (FLIM) (mCherry-RAB11A [1]): 2.45 ns | mean YFP fluorescence lifetime (FLIM) (mCherry-RAB11A [2]): 2.19 ns
